Test results reported in paper PMC4871238 (Nature structural & molecular biology, 2015).

T1: human SBDS (Shwachman-Bodian-Diamond syndrome protein) (human, UniProt Q9Y3A5 1-250)
T1 sequence: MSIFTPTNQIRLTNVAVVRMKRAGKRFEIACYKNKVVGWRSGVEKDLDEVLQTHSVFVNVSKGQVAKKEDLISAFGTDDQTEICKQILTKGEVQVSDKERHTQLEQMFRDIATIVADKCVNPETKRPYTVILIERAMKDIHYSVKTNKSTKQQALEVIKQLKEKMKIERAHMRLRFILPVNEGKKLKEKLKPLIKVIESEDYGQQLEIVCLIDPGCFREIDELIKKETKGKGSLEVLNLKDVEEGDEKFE

B1: Dictyostelium discoideum eIF6 (eukaryotic initiation factor 6), endogenous (natural protein)
chain: not shown

Key:
Assay in all cases: cryo-EM structure
[1] = molecular target: B1
[2] = molecular target: T1, human SBDS (Shwachman-Bodian-Diamond …)
[3] = molecular target: Dictyostelium discoideum ribosomal protein uL3 (L3) (Dictyostelium discoideum, UniProt P34113 1-398)
Dictyostelium discoideum ribosomal protein uL3 (L3), sequence (P34113 whole entry): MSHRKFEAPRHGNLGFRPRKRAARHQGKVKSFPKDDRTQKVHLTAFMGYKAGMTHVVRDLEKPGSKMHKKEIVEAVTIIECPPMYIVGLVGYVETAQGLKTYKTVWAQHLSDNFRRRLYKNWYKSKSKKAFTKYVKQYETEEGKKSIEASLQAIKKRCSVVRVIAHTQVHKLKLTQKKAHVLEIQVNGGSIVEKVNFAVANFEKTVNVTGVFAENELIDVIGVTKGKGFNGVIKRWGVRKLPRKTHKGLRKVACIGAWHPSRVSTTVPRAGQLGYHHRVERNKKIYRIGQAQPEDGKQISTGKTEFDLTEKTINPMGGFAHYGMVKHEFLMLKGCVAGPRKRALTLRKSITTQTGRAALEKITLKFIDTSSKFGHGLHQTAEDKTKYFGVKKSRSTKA

binding result [1] | binding result [2] | Binder | other results
binds | – | Dictyostelium discoideum ribosomal protein eL24 (L24) (natural protein, UniProt Q54VN6 1-127, looked up) MKTSLCNYSEFKIYPARGMKFVRGDSKVFHFINTKVESLFFRKINPRDIRWSMVYRRIYKNTTTDVSAKKKARKTKKVERNIVGASLEVIQQKRAQKPEVKQAAAEQAKREIKEKKKAAAKKAAPKK | –
– | binds | Dictyostelium discoideum ribosomal protein uL16 (L10) (natural protein, UniProt Q54J69 1-217, looked up) MGRRPARCYRYCKNKPYIKSRYCRGVPDAKIRIFDLGRKKASTDEFPLCVHLISLEKEQLSSEAIEAGRISCNKYISKTGGKDSFHMRVRVHPWHVLRINKMLSCAGADRLQTGMRGAFGKPMGTVARVNIGQIIFSIRTRDNMLANVVEALRRSSYKFPGRQKIVVSKKWGFTAYNREAYQKLKADGRLMNDGANVKVITNHGTLAQYAKDIAAAN | –
binds | – | Dictyostelium discoideum ribosomal protein uL14 (L23) (natural protein) not shown | –
– | – | B1 | binding result [3]: binds
– | binds | Dictyostelium discoideum ribosomal protein uL11 (L12) (natural protein) not shown | –
